From publication PMC1887688

Target: MHC class II (HLA-DR1) on human LG-2 cells (human (endogenous in LG-2))
Assay: radioligand binding

Substance: SMEZ-2, recombinant (natural protein)
- KD, high affinity site: 25 nM
- KD, low affinity site: 1000 nM
